This is an account of results in PMC7437921.

Holding throughout (experiment): FRET or BRET
(BRET reads energy transfer from a luciferase to a nearby fluorophore.)

The target of test [1] is CXCR4(Δ1–15), HA-free (tagless) (human) (UniProt P61073).
The next test addresses CXCR4(R30Q) (human) (UniProt P61073).
Test [2] deals with CXCR4(Δ1–25), HA-free (tagless) (human) (UniProt P61073).
Another test concerns the target CXCR4(D187A) (human) (UniProt P61073).

As for renilla GFP fused to mini-Gαsi, the efficacy (Emax) remaining, % of WT CXCR4 in test [1] is 33%; in test [2], 23%; with CXCR4(D187A) (human), 30%. Also, the decrease in efficacy (Emax) vs WT CXCR4 with CXCR4(R30Q) (human) is 30%.
